Target: immune complexes of Dylight 650-labeled bovine serum albumin, polyclonal rabbit anti-BSA and human serum complement (bovine) (UniProt P02769)
Assay: cell-based or functional assay

Sequence of UniProt P02769 (P02769 25-607, one chain of several): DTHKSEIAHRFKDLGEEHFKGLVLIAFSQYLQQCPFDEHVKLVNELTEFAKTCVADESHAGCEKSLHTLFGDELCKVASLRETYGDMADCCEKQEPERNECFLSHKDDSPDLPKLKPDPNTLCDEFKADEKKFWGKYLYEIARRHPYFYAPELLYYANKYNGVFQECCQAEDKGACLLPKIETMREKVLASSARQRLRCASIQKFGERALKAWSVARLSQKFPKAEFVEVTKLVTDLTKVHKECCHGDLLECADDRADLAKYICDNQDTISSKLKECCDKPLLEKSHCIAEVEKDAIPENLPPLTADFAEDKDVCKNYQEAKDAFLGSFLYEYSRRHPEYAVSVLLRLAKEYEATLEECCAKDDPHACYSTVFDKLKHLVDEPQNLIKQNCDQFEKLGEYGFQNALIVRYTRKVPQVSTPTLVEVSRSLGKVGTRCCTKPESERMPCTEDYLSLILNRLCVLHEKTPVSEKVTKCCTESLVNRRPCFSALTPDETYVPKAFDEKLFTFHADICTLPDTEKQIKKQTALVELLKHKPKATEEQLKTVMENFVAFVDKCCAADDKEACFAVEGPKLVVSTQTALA

With “complement receptor 1 (CR1) over-expressed on the surface of cultured erythroid cells (from UniProt P17927 42-2039)” as the substance, how does the uptake of labeled immune complexes by PMA-activated U937 macrophages in co-culture (flow cytometry fluorescence) read?
Its uptake of labeled immune complexes by PMA-activated U937 macrophages in co-culture (flow cytometry fluorescence) is 2 fold.
